{
  "source": "patent US20100048482A1",
  "about": "(Stanford University, published 2010)",
  "binders": {"B1": {"name": "epsilon protein kinase C (εPKC), endogenous, rat heart (enzyme)", "chain": "MVVFNGLLKIKICEAVSLKPTAWSLRHAVGPRPQTFLLDPYIALNVDDSRIGQTATKQKTNSPAWHDEFVTDVCNGRKIELAVFHDAPIGYDDFVANCTIQFEELLQNGSRHFEDWIDLEPEGKVYVIIDLSGSSGEAPKDNEERVFRERMRPRKRQGAVRRRVHQVNGHKFMATYLRQPTYCSHCRDFIWGVIGKQGYQCQVCTCVVHKRCHELIITKCAGLKKQETPDEVGSQRFSVNMPHKFGIHNYKVPTFCDHCGSLLWGLLRQGLQCKVCKMNVHRRCETNVAPNCGVDARGIAKVLADLGVTPDKITNSGQRRKKLAAGAESPQPASGNSPSEDDRSKSAPTSPCDQELKELENNIRKALSFDNRGEEHRASSSTDGQLASPGENGEVRQGQAKRLGLDEFNFIKVLGKGSFGKVMLAELKGKDEVYAVKVLKKDVILQDDDVDCTMTEKRILALARKHPYLTQLYCCFQTKDRLFFVMEYVNGGDLMFQIQRSRKFDEPRSGFYAAEVTSALMFLHQHGVIYRDLKLDNILLDAEGHSKLADFGMCKEGILNGVTTTTFCGTPDYIAPEILQELEYGPSVDWWALGVLMYEMMAGQPPFEADNEDDLFESILHDDVLYPVWLSKEAVSILKAFMTKNPHKRLGCVAAQNGEDAIKQHPFFKEIDWVLLEQKKMKPPFKPRIKTKRDVNNFDQDFTREEPILTLVDEAIVKQINQEEFKGFSYFGEDLMP", "notes": "Endogenous protein in mitochondrial or cytosolic fractions of Wistar rat hearts, immunoprecipitated from lysate; also called PKCε; epsilon PKC"}},
  "target": "heat shock protein 90 (HSP90), endogenous, rat heart (rat, UniProt P82995 2-733, limits assumed)",
  "assay": "co-immunoprecipitation and western blot, mitochondria of rat hearts after IR with or without 1 µM ψεHSP90 peptide",
  "method": "200-500 μg of mitochondrial or cytosolic protein was diluted into 1 ml of IP Lysis Buffer (150 mM NaCl, 10 mM Tris-HCl, 5 mM EDTA, 0.1% Triton X-100, pH=7.4, containing Sigma Protease Inhibitor 1 and Sigma Phosphatase Inhibitors 1 and 2). […] 10 μg of Protein A/G Beads (Santa Cruz Biotechnology) were added and the mixture was incubated overnight at 4° C. with inversion mixing. Beads were then centrifuged, washed 3× in IP Lysis Buffer, then re-suspended in sample buffer. Immunoprecipitated proteins were separated on 10% SDS-PAGE gels. […] A beads alone group was also included for each sample set to assess any non-specific protein binding to the beads.",
  "data": [
    {"binder": "B1", "values": [
      {"measurement": "fold increase in co-immunoprecipitation with ψεHSP90 peptide treatment against IR alone", "value": "~4", "unit": "fold"}
    ]}
  ]
}
